Data on 7 molecules can be found in US20250002938A1 (FRANCIS CRICK INSTITUTE, published 2025).

Broadly, the Kd is the free concentration of one partner at which half of the binding sites on the other are occupied at equilibrium, for simple one-to-one binding. Lower therefore signals a tighter complex.

To fix the notation:
B1: AAV1 wildtype capsid (virus particle) (other)
chain: MAADGYLPDWLEDNLSEGIREWWDLKPGAPKPKANQQKQDDGRGLVLPGYKYLGPFNGLDKGEPVNAADAAALEHDKAYDQQLKAGDNPYLRYNHADAEFQERLQEDTSFGGNLGRAVFQAKKRVLEPLGLVEEGAKTAPGKKRPVEQSPQEPDSSSGIGKTGQQPAKKRLNFGQTGDSESVPDPQPLGEPPATPAAVGPTTMASGGGAPMADNNEGADGVGNASGNWHCDSTWLGDRVITTSTRTWALPTYNNHLYKQISSASTGASNDNHYFGYSTPWGYFDFNRFHCHFSPRDWQRLINNNWGFRPKRLNFKLFNIQVKEVTTNDGVTTIANNLTSTVQVFSDSEYQLPYVLGSAHQGCLPPFPADVFMIPQYGYLTLNNGSQAVGRSSFYCLEYFPSQMLRTGNNFTFSYTFEEVPFHSSYAHSQSLDRLMNPLIDQYLYYLNRTQNQSGSAQNKDLLFSRGSPAGMSVQPKNWLPGPCYRQQRVSKTKTDNNNSNFTWTGASKYNLNGRESIINPGTAMASHKDDEDKFFPMSGVMIFGKESAGASNTALDNVMITDEEEIKATNPVATERFGTVAVNFQSSSTDPATGDVHAMGALPGMVWQDRDVYLQGPIWAKIPHTDGHFHPSPLMGGFGLKNPPPQILIKNTPVPANPPAEFSATKFASFITQYSTGQVSVEIEWELQKENSKRWNPEVQYTSNYAKSANVDFTVDNNGLYTEPRPIGTRYLTRPL
notes: Assembled virus particle: 60 monomers of VP1, VP2 and VP3 at about 1:1:10; VP2 and VP3 are N-terminally shorter forms of the same entry; also called AAV1WT; AAV1 capsid
B5: sfGFP-PKD2 fusion protein (wild type PKD2) (other)
chain: IAIVSPQFQEISLPTTSTVIDGSQSTDDDKIVQYHWEELKGPLREEKISEDTAILKLSKLVPGNYTFSLTVVDSDGATNSTTANLTVNKA
notes: also called sfGFP-PKD2 adaptor protein; PKD2WT; not shown: superfolder GFP (sfGFP)

Test [1] addresses T1, PKD2 domain of AAVR, wild type (Pongo abelii (Sumatran orangutan) …, UniProt Q5RFR6 409-498).
T1 construct: also called PKD2 wild type
T1 sequence: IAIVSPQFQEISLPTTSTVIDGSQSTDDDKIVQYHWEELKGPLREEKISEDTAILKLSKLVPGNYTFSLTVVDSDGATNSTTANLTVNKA
Description: response-concentration plot on AAV1 capsid; method not named; PKD2 wild type.

The target in test [2] is B5. Nature of the test: SPR; AAV1 virus amine-coupled on a CM3 chip, increasing concentrations of the fusion protein. Background: In SPR one partner is held on a chip, and binding of the other changes the refractive index at the surface.
For test [3], the target named is T2, AAV5(Gln697Cys) virus particle (AAV5).
T2 construct: Assembled particle of VP1, VP2 and VP3; also called AAV5^Q697C
Nature of the test: anti-VP1/2/3 immunoblot of a non-reducing gel, coupling at 10 µM adaptor. In general terms: A western blot detects proteins with antibodies after separation by electrophoresis.

Test [4] addresses T3, AAV1(Asp590Cys) virus particle (AAV1).
T3 construct: Assembled particle of VP1, VP2 and VP3, all carrying the mutation; also called AAV1Cys; AAV1 Asp590Cys virions
T3 chain: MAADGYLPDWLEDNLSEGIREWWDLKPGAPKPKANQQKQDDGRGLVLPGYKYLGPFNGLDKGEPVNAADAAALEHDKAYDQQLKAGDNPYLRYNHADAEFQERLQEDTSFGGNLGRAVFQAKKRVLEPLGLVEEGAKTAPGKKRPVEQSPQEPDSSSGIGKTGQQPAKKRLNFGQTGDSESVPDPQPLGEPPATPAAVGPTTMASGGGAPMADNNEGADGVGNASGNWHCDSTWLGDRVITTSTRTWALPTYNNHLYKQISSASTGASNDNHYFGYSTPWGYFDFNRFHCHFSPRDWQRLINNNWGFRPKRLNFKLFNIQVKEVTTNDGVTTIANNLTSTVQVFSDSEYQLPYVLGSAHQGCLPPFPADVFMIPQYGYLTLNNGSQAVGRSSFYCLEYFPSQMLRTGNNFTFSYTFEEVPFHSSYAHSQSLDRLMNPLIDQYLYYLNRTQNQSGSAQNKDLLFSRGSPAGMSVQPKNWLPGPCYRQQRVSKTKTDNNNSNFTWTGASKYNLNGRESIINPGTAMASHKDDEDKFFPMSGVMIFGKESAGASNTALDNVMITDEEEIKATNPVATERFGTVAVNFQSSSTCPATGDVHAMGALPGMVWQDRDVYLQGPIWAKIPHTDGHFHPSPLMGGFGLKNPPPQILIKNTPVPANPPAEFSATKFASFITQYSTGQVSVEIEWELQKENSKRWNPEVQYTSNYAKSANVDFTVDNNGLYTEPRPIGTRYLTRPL
Nature of the test: non-reducing Coomassie SDS-PAGE, covalent coupling of the PKD2(Ser425Cys) fusion with AAV1 D590C.

Test [5] has as its target T3, AAV1(Asp590Cys) virus particle. Nature of the test: SDS-PAGE of the mixtures, non-reducing (top, bottom left) and reducing with βME (bottom right); shows disulfide-linked adducts only.
In test [6] the target is T4, AAV2 wildtype virus particle (AAV2, UniProt P03135 1-735).
T4 construct: Assembled particle of VP1, VP2 and VP3; The virus for SPR was commercially sourced; also called AAV2 wt
Description: SPR; AAV2 virus amine-coupled on a CM3 chip, increasing concentrations of the fusion protein.

The target in test [7] is B1. Description: response-concentration plot on AAV1 capsid; method not named; PKD2(V480E) mutant.
In test [8] the target is T5, AAV2(Gln589Cys) virus particle (AAV2, UniProt P03135 1-735).
T5 construct: Assembled particle of VP1, VP2 and VP3
Description: anti-VP1/2/3 immunoblot of a non-reducing gel, coupling at 5 µM adaptor.

The target of test [9] is T3, AAV1(Asp590Cys) virus particle. Description: anti-VP1/2/3 immunoblot of a non-reducing gel, coupling at 3 µM adaptor in 1 mM TCEP.

As to B1, the dissociation constant Kd was 12.2 µM in test [1] and around 2 µM in test [2].

B2: superfolder GFP fused to PKD1(Ser356Cys) (other)
chain: SAGESVQITLPKNEVQLNAYVLQEPPKGETYTYDWQLITHPRDYCGEMEGKHSQILKLSKLTPGLYEFKVIVEGQNAHGEGYVNVTVKPE
notes: also called PKD1^S356C-derived AP; adaptor protein (38.2 kDa); not shown: superfolder GFP
For the molecule B2, the binding result in test [3] is “binds”.

B3: msfGFP fused to PKD2(Ser425Cys) (other)
chain: IAIVSPQFQEISLPTTCTVIDGSQSTDDDKIVQYHWEELKGPLREEKISEDTAILKLSKLVPGNYTFSLTVVDSDGATNSTTANLTVNKA
notes: also called monomeric variant of super folder GFP adaptor protein; not shown: monomeric variant of super folder GFP (msfGFP)
As to B3, the binding result in test [4] is given as “binds”.

B4: sfGFP-PKD2(Ser425Cys) adaptor fusion protein (other)
chain: IAIVSPQFQEISLPTTCTVIDGSQSTDDDKIVQYHWEELKGPLREEKISEDTAILKLSKLVPGNYTFSLTVVDSDGATNSTTANLTVNKA
notes: On the virus it forms the AAV1(Asp590Cys)<>sfGFP CAR-V; also called PKD2Cys; sfGFP-PKD2(Ser425Cys) fusion polypeptide; not shown: superfolder GFP (sfGFP)
For the molecule B4, the binding result in [5] is given as “binds”. Regarding B5, the Kd in test [6] was around 6 µM.

B6: PKD2(V480E) mutant (receptor)
chain: IAIVSPQFQEISLPTTSTVIDGSQSTDDDKIVQYHWEELKGPLREEKISEDTAILKLSKLVPGNYTFSLTVEDSDGATNSTTANLTVNKA
notes: also called PKD2(V480E) variant of AAVR; Val480Glu mutation
As to B6, the Kd in test [7] was found to be 6.13 µM. In other words, the single-digit micromolar range.

B7: superfolder GFP fused to PKD2(Ser425Cys-Val480Glu) (other)
chain: IAIVSPQFQEISLPTTCTVIDGSQSTDDDKIVQYHWEELKGPLREEKISEDTAILKLSKLVPGNYTFSLTVEDSDGATNSTTANLTVNKA
notes: also called sfGFP-PKD2(Ser425Cys-Val480Glu); not shown: superfolder GFP
Take B7: the binding result in [8] and in [9] was “binds” throughout.
